Reference: patent publication US7109170B2, “Region of factor IXa protease domain that interacts with factor VIIIa and methods therefor” (Saint Louis University, priority 1999, dated 2006)

Legend:
[1] = biological target: T1, factor XIa/Ca2+ (Homo sapiens, UniProt P03951); test: activation of factor IX mutants by factor XIa/Ca2+ (SDS gel); type: biochemical; conditions: analyzed by SDS gel electrophoresis
T1 construct: purchased Enzyme Research Laboratories (South Bend, Ind.)
Method: The rates of activation of the protease domain factor IX mutants by VIIa/TF and by Factor Xla/Ca^2+ was also determined, under conditions described in Mathur et al., 1997, supra, either by VIIa/TF/Ca^2+ or by factor Xla/Ca^2+. The rates of the mutants were similar to that of IXNP as analyzed by SDS gel electrophoresis.
Various DEGR-ck-inhibited factor IXa proteins were prepared for these experiments as follows. IXNP, IXWT, and each mutant factor IX at 200 μg/ml was activated by factor XIa (2 μg/ml) for 90 min. in TBS, pH 7.4 (0.05 M Tris, 0.15 M NaCl, pH 7.4) containing 5 mM Ca^2+. […] DEGR-IXaNP, DEGR-IXaWT, and various DEGR-IXa mutant proteins were prepared as described in Mathur et al., 1997, supra, and free DEGR-ck was removed as described in Sabharwal et al., 1995, supra and Krishnaswamy, 1992, J. Biol. Chem. 267, 23696–23706.

[2] = biological target: mouse monoclonal antibody (mAb) that inhibits the interaction of factor IXa with factor VIIIa; test: binding of IX proteins to mAb that interferes with IXa:VIIIa interaction (coagulant based / competition assay)
Description: The ability of the IX mutant proteins to bind to a mAb (Bajaj et al., 1985, supra) which interferes with the interaction of IXa and VIIIa was studied using a coagulant based assay as described in Usharani et al., 1985, J. Clin. Invest.

[3] = biological target: T2, factor VIIIa (Homo sapiens, UniProt P00451); test: inhibition of Xa generation by active site-blocked (DEGR) IXa proteins, presence of phospholipid (Kd,app for VIIIa); type: biochemical; conditions: active site-blocked (DEGR) IXa proteins, 10 μM phospholipid; read-out: Kd, app for interaction with factor VIIIa, PL-plus system
T2 construct: purchased Dr. Leon Hoyer (American Red Cross, Rockville, Md.)
T2 sequence (P00451 20-759 limits assumed): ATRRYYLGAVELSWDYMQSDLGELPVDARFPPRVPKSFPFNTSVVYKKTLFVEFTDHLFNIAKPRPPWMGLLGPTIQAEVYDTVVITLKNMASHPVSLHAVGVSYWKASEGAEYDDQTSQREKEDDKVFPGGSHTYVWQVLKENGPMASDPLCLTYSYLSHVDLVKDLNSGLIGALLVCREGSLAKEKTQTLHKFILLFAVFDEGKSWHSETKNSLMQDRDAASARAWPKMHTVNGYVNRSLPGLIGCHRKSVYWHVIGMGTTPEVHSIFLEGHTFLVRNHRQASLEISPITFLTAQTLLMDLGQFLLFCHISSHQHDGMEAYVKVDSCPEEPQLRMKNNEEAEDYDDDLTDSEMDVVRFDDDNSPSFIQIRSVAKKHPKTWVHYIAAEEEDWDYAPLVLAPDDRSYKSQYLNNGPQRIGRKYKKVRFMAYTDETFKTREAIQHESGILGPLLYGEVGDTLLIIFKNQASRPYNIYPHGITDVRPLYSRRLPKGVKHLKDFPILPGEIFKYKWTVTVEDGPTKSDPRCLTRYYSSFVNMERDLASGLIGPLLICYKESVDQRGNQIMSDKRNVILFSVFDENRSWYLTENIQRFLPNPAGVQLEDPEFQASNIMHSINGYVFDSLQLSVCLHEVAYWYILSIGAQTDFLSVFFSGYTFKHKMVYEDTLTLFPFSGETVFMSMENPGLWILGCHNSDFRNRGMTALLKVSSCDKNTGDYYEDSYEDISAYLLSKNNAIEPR
T2 sequence (P00451 1668-2351 limits assumed): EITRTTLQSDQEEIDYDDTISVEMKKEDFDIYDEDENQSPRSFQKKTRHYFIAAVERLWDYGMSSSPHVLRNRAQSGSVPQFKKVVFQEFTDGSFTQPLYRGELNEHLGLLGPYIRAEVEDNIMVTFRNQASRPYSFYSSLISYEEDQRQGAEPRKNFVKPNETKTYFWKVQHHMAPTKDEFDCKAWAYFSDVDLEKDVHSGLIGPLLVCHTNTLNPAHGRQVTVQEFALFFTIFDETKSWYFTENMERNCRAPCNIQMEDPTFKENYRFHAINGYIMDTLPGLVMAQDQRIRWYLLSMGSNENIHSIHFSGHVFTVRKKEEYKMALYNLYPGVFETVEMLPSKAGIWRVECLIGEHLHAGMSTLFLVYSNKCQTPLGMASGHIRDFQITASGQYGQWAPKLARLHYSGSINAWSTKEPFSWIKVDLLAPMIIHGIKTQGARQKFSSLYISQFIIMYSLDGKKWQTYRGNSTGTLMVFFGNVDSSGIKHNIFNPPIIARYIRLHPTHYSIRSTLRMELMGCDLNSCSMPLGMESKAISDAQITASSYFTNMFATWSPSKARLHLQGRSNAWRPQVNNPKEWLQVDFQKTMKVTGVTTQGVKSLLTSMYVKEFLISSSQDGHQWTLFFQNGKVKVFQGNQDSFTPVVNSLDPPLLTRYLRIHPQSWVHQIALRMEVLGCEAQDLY
Method: (§1) Apparent Kds of factor VIIIa binding to various active site-blocked factor IXa proteins were determined from inhibition experiments as detailed in Mathur et al., 1997, supra. […] Reactions were carried out for 2 min and the rates of factor X activation were measured as outlined above.
(§2) Various DEGR-ck-inhibited factor IXa proteins were prepared for these experiments as follows. IXNP, IXWT, and each mutant factor IX at 200 μg/ml was activated by factor XIa (2 μg/ml) for 90 min. in TBS, pH 7.4 (0.05 M Tris, 0.15 M NaCl, pH 7.4) containing 5 mM Ca^2+.
(§3) Enzymol. 74, 481–508 given below:
(§4) [formula] where y is the rate of Xa formation in the presence of a given concentration of DEGR-IXa protein represented by x, a is the maximum rate of Xa formation in the absence of DEGR-IXa, and s is the slope factor. Each point was weighted equally and the data were fitted to Equation 1 using the nonlinear regression analysis program obtained from Erithacus Software (GraFit). […] To obtain the Kd,app values for the interaction of DEGR-IXa proteins with factor VIIIa, the following equation was used, as described by Cheng and Prusoff, 1973, Biochem. Pharmacol. 22, 3099–3108 and further discussed by Craig, 1993, Trends Pharmacol. Sci. 6, 68–71.

[4] = biological target: T2, factor VIIIa; test: inhibition of Xa generation by active site-blocked (DEGR) IXa proteins, absence of phospholipid (Kd,app for VIIIa); type: biochemical; conditions: active site-blocked (DEGR) IXa proteins, no phospholipid
Method: as §1, §2, §3, §4

[5] = biological target: T3, factor X (Homo sapiens, UniProt P00742); test: factor X activation by IXa proteins, Ca2+ and phospholipid, without VIIIa; type: biochemical; parameters: Normal human plasma factor IX (IXNP) and factor X were isolated as described in Bajaj and Birktoft; from tissue; host or cells: human plasma; conditions: no VIIIa, 20 nM IXa, 25 μM phospholipid, 100 nM X
Method: (§5) The ability of each activated mutant to activate factor X in the presence and absence of phospholipid and factor VIIIa was determined as follows. The activation was carried out at 37° C. in a 50 μl reaction volume, in TBS/BSA pH 7.4, for various time periods. At the end of the incubation time period, each reaction mixture received 1 μl of 0.5 M EDTA to stop further generation of factor Xa. A 40 μL aliquot was then added to 0.1 ml quartz cuvette containing S-2222 in 75 μL of TBS/BSA, pH 7.4. The final concentration of S-2222 was 100 μM. The p-nitroaniline release was measured continuously (ΔA405/min) for up to 20 min (Sabharwal et al., 1995 supra; Sabharwal et al., 1997, supra). Factor Xa generated was calculated from a standard curve constructed using factor Xa prepared from insolubilized Russell's viper venom.
(§6) Factor X activation measurements were made under four experimental regimes. In one, Ca^2+ and phospholipid were present. In this system activation was carried out for 5–15 minutes and the concentration of each IXa protein was 20 nM, phospholipid was 25 μM, and factor X was 100 nM. In the second regime, Ca^2+, phospholipid and factor VIIIa were present. […] In the third regime, only Ca^2+ was present. Here, activation was carried out for 2–20 min and concentration of each IXa protein was 400 nM and factor X was 1 μM. Finally, in the fourth regime, Ca^2+ and VIIIa were present. […]
Target sequence in this assay (P00742 183-488 limits assumed): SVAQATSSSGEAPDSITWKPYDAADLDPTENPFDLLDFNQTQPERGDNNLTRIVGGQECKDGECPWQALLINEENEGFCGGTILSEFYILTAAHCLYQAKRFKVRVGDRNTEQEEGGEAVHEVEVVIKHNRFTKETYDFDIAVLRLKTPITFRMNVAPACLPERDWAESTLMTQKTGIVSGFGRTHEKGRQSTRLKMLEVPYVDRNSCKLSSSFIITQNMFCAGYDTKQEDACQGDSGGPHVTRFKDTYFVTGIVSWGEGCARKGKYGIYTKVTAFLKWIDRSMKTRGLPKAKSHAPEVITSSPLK
Target sequence in this assay (P00742 41-179 limits assumed): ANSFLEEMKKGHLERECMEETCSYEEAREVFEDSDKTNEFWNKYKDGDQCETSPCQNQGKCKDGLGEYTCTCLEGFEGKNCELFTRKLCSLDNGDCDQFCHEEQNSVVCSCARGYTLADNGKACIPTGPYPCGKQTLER

[6] = biological target: T3, factor X; test: factor X activation by IXa proteins, Ca2+ only; type: biochemical; parameters: Normal human plasma factor IX (IXNP) and factor X were isolated as described in Bajaj and Birktoft; from tissue; host or cells: human plasma; conditions: 1 μM X, 400 nM IXa, no phospholipid, no VIIIa
Method: as §5, §6
Target sequence in this assay (P00742 183-488 limits assumed): as the sequence (P00742 183-488 limits assumed) above
Target sequence in this assay (P00742 41-179 limits assumed): as the sequence (P00742 41-179 limits assumed) above

[7] = test system: Factor IX deficient plasma; test: coagulant activity of XIa-activated IXa proteins; type: biochemical
[8] = biological target: T3, factor X; test: factor X activation in complete intrinsic Tenase system (IXa, Ca2+, phospholipid, VIIIa); type: biochemical; parameters: Normal human plasma factor IX (IXNP) and factor X were isolated as described in Bajaj and Birktoft; from tissue; host or cells: human plasma (factor X); factor VIII obtained from Dr. Leon Hoyer, American Red Cross; conditions: 70 pM VIIIa, 0.5 nM IXa, 15 nM X, phospholipid present
Method: as §5
(§7) Factor X activation measurements were made under four experimental regimes. In one, Ca^2+ and phospholipid were present. In this system activation was carried out for 5–15 minutes and the concentration of each IXa protein was 20 nM, phospholipid was 25 μM, and factor X was 100 nM. In the second regime, Ca^2+, phospholipid and factor VIIIa were present. […] In the third regime, only Ca^2+ was present. Here, activation was carried out for 2–20 min and concentration of each IXa protein was 400 nM and factor X was 1 μM. Finally, in the fourth regime, Ca^2+ and VIIIa were present. Here, activation was carried out for 15–120 sec and the concentration of each IXa protein was 2 μM, VIIIa was 14 nM, and factor X was 400 nM.
(§8) In all of the above factor X activation experiments, the incubation times chosen were those in which the factor Xa generated was always less than 10 nM. This precautionary measure was taken to prevent activation of factor X by the generated factor Xa (see, e.g., Link. and Castellino, 1982, Arch Biochem. Biophys. 215, 215–221). Further, in those incubation mixtures which contained […], control experiments were also performed in which factor VIIIa was omitted. […] In the presence of factor VIIIa, 10 μM phospholipid was used based upon previous observations (Mathur et al., 1997, supra; van Dieijen et al., 1981, J. Biol. Chem. 256, 3433–3442). The concentrations of factor X selected for each set of reaction conditions are those which are below or at the Km values (van Dieijen et al., supra; Fay and Koshibu, 1998, J Biol. Chem. 273, 19049–19054). In this region of the Michaelis-Menton curve, the rate of formation of factor Xa is proportional to the substrate factor X and therefore to the affinity of the factor IXa enzyme for factor X.
Next, the activation of factor X in a complete intrinsic Tenase system (IXa, Ca^2+, phospholipid, VIIIa) was studied.
Target sequence in this assay (P00742 183-488 limits assumed, one chain of several): as the sequence (P00742 183-488 limits assumed) above
Target sequence in this assay (P00742 41-179 limits assumed, one chain of several): as the sequence (P00742 41-179 limits assumed) above

[9] = biological target: T3, factor X; test: factor X activation by IXa proteins, Ca2+ and VIIIa, no phospholipid; type: biochemical; parameters: Normal human plasma factor IX (IXNP) and factor X were isolated as described in Bajaj and Birktoft; from tissue; host or cells: human plasma (factor X); factor VIII obtained from Dr. Leon Hoyer, American Red Cross; conditions: 14 nM VIIIa, 400 nM factor X
Method: as §5, §7, §8
Target sequence in this assay (P00742 183-488 limits assumed, one chain of several): as the sequence (P00742 183-488 limits assumed) above
Target sequence in this assay (P00742 41-179 limits assumed, one chain of several): as the sequence (P00742 41-179 limits assumed) above

[10] = from other studies; cited from earlier work
[11] = test system: factor VIIIa; conditions: from other studies; cited from earlier work

T1 sequence (P03951 388-625 limits assumed): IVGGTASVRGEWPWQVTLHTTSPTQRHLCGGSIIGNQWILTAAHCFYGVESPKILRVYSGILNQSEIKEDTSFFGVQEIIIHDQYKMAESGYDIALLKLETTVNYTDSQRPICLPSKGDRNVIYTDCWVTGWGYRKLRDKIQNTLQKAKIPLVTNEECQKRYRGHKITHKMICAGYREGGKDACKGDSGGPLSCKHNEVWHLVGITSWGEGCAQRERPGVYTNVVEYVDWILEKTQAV
T1 sequence (P03951 19-387 limits assumed): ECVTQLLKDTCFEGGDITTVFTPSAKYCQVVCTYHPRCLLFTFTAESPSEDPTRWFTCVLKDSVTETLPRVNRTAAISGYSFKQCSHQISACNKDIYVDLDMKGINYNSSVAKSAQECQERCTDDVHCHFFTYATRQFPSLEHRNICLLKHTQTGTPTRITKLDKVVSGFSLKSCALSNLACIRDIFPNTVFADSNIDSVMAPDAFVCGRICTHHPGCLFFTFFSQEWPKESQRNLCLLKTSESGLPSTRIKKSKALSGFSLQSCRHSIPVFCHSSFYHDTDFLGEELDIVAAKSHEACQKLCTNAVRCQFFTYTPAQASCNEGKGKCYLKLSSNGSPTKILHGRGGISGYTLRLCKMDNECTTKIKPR

In the case of “IXPCEGF1: factor IX in which EGF1 residues 52–85 are replaced by residues 51–92 of protein C”, the “rate of activation by factor XIa/Ca2+” value [1] is reported as “readily activated”.

In the case of “IXQ50P: factor IX mutant that lacks the EGF1 domain Ca2+ binding site”, the Kd [2] is reported as about 15 nM and the “rate of activation by factor XIa/Ca2+” value [1] is reported as “readily activated”.

For “IXaPCEGF1: activated factor IX with EGF1 domain replaced by that of protein C”, the Kd [3] was 5.71 ± 0.82 nM, the “Kd, app for interaction with factor VIIIa, PL-minus system” value [4] was “indistinguishable from that of normal IXa” and the Kd ([4]; read-out: Kd, app for interaction with factor VIIIa, PL-minus system) was 210 ± 10 nM. For the same substance, the “rate of factor Xa generation” value [5] was 0.06 nM/min and the “rate of factor X activation, Ca2+ only” value [6] was about 0.48 nM/min.

In the case of “IXaQ50P: activated EGF1 domain mutant Q50P of factor IX”, the “Kd, app for interaction with factor VIIIa, PL-minus system” value [4] is reported as “indistinguishable from that of normal IXa”, the “rate of factor Xa generation” value [5] is reported as 0.07 nM/min and the “rate of factor X activation, Ca2+ only” value [6] is reported as about 0.39 nM/min.

With “IXaT335A: activated factor IX mutant T335A” the “coagulant activity as compared to IXaNP” value [7] was about 35%, the “X-activation rate, PL-plus system” value [8] was 1.92 ± 0.11 nM/min and the “X-activation rate, PL-plus system” value ([8]; listed as IXaI335A) was about 1.9 nM/min. For the same substance, the “X-activation rate, PL-minus system” value [9] was 1.83 ± 0.18 nM/min.

In the case of “R338A: factor IX R338A mutant described by Chang and coworkers [Protein R338A]”, the activity of variant [10] is given as “slightly increased activity” and the “factor VIIIa binding / affinity of variant” value [11] is given as “without an impairment in factor VIIIa binding”.
